This note sets out measurements from patent US10100129B2, “Antibodies against CD73 and uses thereof” (BRISTOL-MYERS SQUIBB COMPANY, priority 2014, dated 2018).

The test system of one test is human FcγRs. The experiment in a line: SPR binding profile to human FcγRs (panel). As for the experimental part:
Binding of the constructs to human FcγRs was measured via SPR. hCD64 and hCD32a-H131 binding data for IgG1.1 and IgG2 molecules were consistent with expected values for the different Fcs. IgG1.1f is the most inert Fc.
(§1) The binding of antibodies to Fc gamma receptors (FcγRs or FcgRs) was studied using biosensor technologies including Biacore surface plasmon resonance (SPR) and Fortebio Biolayer Interferometry (BLI). SPR studies were performed on a Biacore T100 instrument (GE Healthcare) at 25° C. The Fab fragment from a murine anti-6×His antibody was immobilized on a CM5 sensor chip using EDC/NHS to a density of ˜3000 RU. Various his-tagged FcgRs (7 ug/ml) were captured via the C-terminal his-tag using a contact time of 30 s at 10 ul/min, and the binding of 1.0 μM antibody was evaluated in a running buffer of 10 mM NaPO4, 130 mM NaCl, 0.05% p20 (PBS-T) pH 7.1. FcgRs used for these experiments included CD64 (FcgRI), CD32a-H131 (FcgRIIa-H131), CD32a-R131 (FcgRIIa-R131), CD32b (FcgRIIb), CD16a-V158 (FcgRIIIa-V158), CD16b-NA1 (FcgRIIIb-NA1), and CD16B-NA2 (FcgRIIIb-NA2). BLI experiments were performed on a Fortebio Octet RED instrument (Pall, Fortebio) at 25° C. in 10 mM NaPO4, 130 mM NaCl, 0.05% p20 (PBS-T) pH 7.1. Antibodies were captured out of undiluted expression supernatants on protein A coated sensors, followed by the binding of 1 μM hCD32a-H131, hCD32a-R131, hCD32b, hCD16a-V158, or 0.1 μM hCD64 analytes.
This engineering strategy was further explored by producing other antibodies formatted with IgG2.3G1-AY, IgG2.3G1-AY-S267E (IgG2.3G1-AY-V27), as well as IgG2-B-form variants (IgG2.5G1-AY and IgG2.5G1-AY-V27), and other hybrid antibodies containing different combinations of IgG1 and IgG2 constant domains, and testing the binding of these antibodies to anti-his Fab captured his-tagged FcgRs using Biacore SPR technology.
(In general: In SPR one partner is held on a chip, and binding of the other changes the refractive index at the surface.)

Test [1] has as its target T1, CD32a-H131 (FcgRIIa-H131) (Homo sapiens, UniProt P12318).
T1 sequence (P12318 34-217 limits assumed): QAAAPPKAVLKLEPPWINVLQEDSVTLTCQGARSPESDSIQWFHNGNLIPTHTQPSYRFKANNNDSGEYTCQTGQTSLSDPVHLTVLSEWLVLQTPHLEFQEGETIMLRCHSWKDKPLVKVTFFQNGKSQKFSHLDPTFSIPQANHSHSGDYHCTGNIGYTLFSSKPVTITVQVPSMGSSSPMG
The experiment in a line: SPR binding to FcgR-his: CD32a-H131. The settings on record: 1 μM antibody, anti-his Fab captured FcgR-his. How it is done:
as §1

Test [2] has as its target CD16a-V158 (FcgRIIIa-V158) (Homo sapiens, UniProt P08637, F176V). The experiment in a line: SPR binding to FcgR-his: CD16a-V158. As to conditions: 1 μM antibody, anti-his Fab captured FcgR-his. As for the experimental part:
as §1

The next test deals with T2, CD32b (FcgRIIb) (Homo sapiens, UniProt P31994).
T2 sequence (P31994 43-310): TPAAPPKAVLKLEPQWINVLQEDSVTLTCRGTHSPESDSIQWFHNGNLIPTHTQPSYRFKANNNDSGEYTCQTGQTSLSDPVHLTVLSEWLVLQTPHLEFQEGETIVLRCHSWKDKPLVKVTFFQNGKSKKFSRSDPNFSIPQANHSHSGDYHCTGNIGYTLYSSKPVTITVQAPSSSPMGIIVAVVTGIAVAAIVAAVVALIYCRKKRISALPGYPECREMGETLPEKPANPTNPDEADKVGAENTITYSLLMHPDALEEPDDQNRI
Nature of the test: SPR binding to FcgR-his: CD32b. As to conditions: 1 μM antibody, anti-his Fab captured FcgR-his. How it is done:
as §1

Test [3] deals with T3, CD32a-R131 (FcgRIIa-R131) (Homo sapiens, UniProt P12318, H167R).
T3 sequence (P12318 34-217 H167R limits assumed): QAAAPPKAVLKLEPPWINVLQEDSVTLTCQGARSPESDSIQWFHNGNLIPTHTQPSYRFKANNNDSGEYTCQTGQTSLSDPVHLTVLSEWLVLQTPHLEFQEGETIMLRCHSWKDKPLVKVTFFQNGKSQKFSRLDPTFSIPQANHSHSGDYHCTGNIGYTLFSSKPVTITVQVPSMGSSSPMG
Nature of the test: SPR binding to FcgR-his: CD32a-R131. As to conditions: 1 μM antibody, anti-his Fab captured FcgR-his. How it is done: as §1

Another test deals with CD16B-NA2 (FcgRIIIb-NA2) (Homo sapiens, UniProt O75015). Nature of the test: SPR binding to FcgR-his: CD16B-NA2. The settings on record: 1 μM antibody, anti-his Fab captured FcgR-his. How it is done:
as §1

The next test addresses CD64 (FcgRI) (Homo sapiens, UniProt P12314). Nature of the test: SPR binding of 1.0 μM antibody to anti-his Fab captured FcgR-his: CD64. How it is done: as §1

CD16B-NA2 (FcgRIIIb-NA2), sequence (O75015 17-200 limits assumed): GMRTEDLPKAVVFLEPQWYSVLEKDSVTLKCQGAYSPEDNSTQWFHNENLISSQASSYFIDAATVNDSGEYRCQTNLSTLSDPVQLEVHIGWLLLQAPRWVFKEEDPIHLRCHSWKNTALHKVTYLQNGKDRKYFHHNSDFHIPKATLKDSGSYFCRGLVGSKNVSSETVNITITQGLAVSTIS
CD64 (FcgRI), sequence (P12314 16-374): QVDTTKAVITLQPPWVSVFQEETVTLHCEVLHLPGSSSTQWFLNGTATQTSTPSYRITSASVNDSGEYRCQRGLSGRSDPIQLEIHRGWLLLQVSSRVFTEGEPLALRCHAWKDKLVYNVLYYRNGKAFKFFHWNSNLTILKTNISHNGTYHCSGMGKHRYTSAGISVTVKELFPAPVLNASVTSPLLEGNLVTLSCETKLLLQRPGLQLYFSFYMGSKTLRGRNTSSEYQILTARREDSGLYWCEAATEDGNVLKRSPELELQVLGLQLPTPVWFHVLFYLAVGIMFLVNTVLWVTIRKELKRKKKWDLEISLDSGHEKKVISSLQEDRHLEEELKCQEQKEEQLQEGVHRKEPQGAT
CD16a-V158 (FcgRIIIa-V158), sequence (P08637 17-208 F176V limits assumed): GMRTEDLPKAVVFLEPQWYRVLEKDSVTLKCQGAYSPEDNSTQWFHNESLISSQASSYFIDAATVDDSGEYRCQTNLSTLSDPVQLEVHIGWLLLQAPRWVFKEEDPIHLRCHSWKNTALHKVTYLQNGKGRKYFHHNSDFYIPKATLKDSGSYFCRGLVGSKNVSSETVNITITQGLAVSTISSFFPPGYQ

B1: IgG2.3plusTHT: modified IgG2.3 constant region construct (protein)
chain: ASTKGPSVFPLAPCSRSTSESTAALGCLVKDYFPEPVTVSWNSGALTSGVHTFPAVLQSSGLYSLSSVVTVPSSNFGTQTYTCNVDHKPSNTKVDKTVERKSCVETHTCPPCPAPPVAGPSVFLFPPKPKDTLMISRTPEVTCVVVDVSHEDPEVQFNWYVDGVEVHNAKTKPREEQFNSTFRVVSVLTVVHQDWLNGKEYKCKVSNKGLPAPIEKTISKTKGQPREPQVYTLPPSREEMTKNQVSLTCLVKGFYPSDIAVEWESNGQPENNYKTTPPMLDSDGSFFLYSKLTVDKSRWQQGNVFSCSVMHEALHNHYTQKSLSLSPGK
modifications: Synthetic: IgG2.3-plusTHT
notes: modified IgG2.3 constant region construct
Regarding B1, in the test with human FcγRs, the “FcgR binding properties by SPR (in words)” value (shortened to “FcgR binding properties”) is “unable to retain IgG1f-like FcgR binding properties”.

B2: IgG2.3plusGGG: modified IgG2.3 constant region construct (protein)
chain: ASTKGPSVFPLAPCSRSTSESTAALGCLVKDYFPEPVTVSWNSGALTSGVHTFPAVLQSSGLYSLSSVVTVPSSNFGTQTYTCNVDHKPSNTKVDKTVERKSCVEGGGCPPCPAPPVAGPSVFLFPPKPKDTLMISRTPEVTCVVVDVSHEDPEVQFNWYVDGVEVHNAKTKPREEQFNSTFRVVSVLTVVHQDWLNGKEYKCKVSNKGLPAPIEKTISKTKGQPREPQVYTLPPSREEMTKNQVSLTCLVKGFYPSDIAVEWESNGQPENNYKTTPPMLDSDGSFFLYSKLTVDKSRWQQGNVFSCSVMHEALHNHYTQKSLSLSPGK
modifications: Synthetic: IgG2.3-plusGGG
notes: as for B1
For B2, in the test with human FcγRs, the “FcgR binding properties” value was “unable to retain IgG1f-like FcgR binding properties”.

B3: IgG2.5plusTHT: modified IgG2.5 constant region construct (protein)
chain: ASTKGPSVFPLAPSSRSTSESTAALGCLVKDYFPEPVTVSWNSGALTSGVHTFPAVLQSSGLYSLSSVVTVPSSNFGTQTYTCNVDHKPSNTKVDKTVERKCCVETHTCPPCPAPPVAGPSVFLFPPKPKDTLMISRTPEVTCVVVDVSHEDPEVQFNWYVDGVEVHNAKTKPREEQFNSTFRVVSVLTVVHQDWLNGKEYKCKVSNKGLPAPIEKTISKTKGQPREPQVYTLPPSREEMTKNQVSLTCLVKGFYPSDIAVEWESNGQPENNYKTTPPMLDSDGSFFLYSKLTVDKSRWQQGNVFSCSVMHEALHNHYTQKSLSLSPGK
modifications: Synthetic: IgG2.5-plusTHT
notes: modified IgG2.5 constant region construct
In the case of B3, the “FcgR binding properties” value in the test with human FcγRs is on record as “unable to retain IgG1f-like FcgR binding properties”.

B4: IgG2.3G1-AY-V27: IgG2.3G1-AY constant region with S267E (protein)
chain: ASTKGPSVFPLAPCSRSTSESTAALGCLVKDYFPEPVTVSWNSGALTSGVHTFPAVLQSSGLYSLSSVVTVPSSNFGTQTYTCNVDHKPSNTKVDKTVERKSCVECPPCPAPELLGGPSVFLFPPKPKDTLMISRTPEVTCVVVDVEHEDPEVKFNWYVDGVEVHNAKTKPREEQYNSTYRVVSVLTVLHQDWLNGKEYKCKVSNKALPAPIEKTISKAKGQPREPQVYTLPPSREEMTKNQVSLTCLVKGFYPSDIAVEWESNGQPENNYKTTPPVLDSDGSFFLYSKLTVDKSRWQQGNVFSCSVMHEALHNHYTQKSLSLSPGK
modifications: Synthetic: IgG2.3G1-AY-V27
notes: IgG2.3G1-AY constant region with S267E
With B4, in the test with human FcγRs, the “FcgR binding properties” value is “comparable FcgR binding properties to IgG1f and IgG1f-S267E, respectively”.

B5: mAb8-IgG2.5G1-AY-V27 (protein)
constant: ASTKGPSVFPLAPSSRSTSESTAALGCLVKDYFPEPVTVSWNSGALTSGVHTFPAVLQSSGLYSLSSVVTVPSSNFGTQTYTCNVDHKPSNTKVDKTVERKCCVECPPCPAPELLGGPSVFLFPPKPKDTLMISRTPEVTCVVVDVEHEDPEVKFNWYVDGVEVHNAKTKPREEQYNSTYRVVSVLTVLHQDWLNGKEYKCKVSNKALPAPIEKTISKAKGQPREPQVYTLPPSREEMTKNQVSLTCLVKGFYPSDIAVEWESNGQPENNYKTTPPVLDSDGSFFLYSKLTVDKSRWQQGNVFSCSVMHEALHNHYTQKSLSLSPGK
modifications: left off: another chain or arm of the molecule
On to B5, for which, in test [1], the “% Rmax, binding to hCD32a-H131” value came to 76%. In test [2], the “% Rmax, binding to hCD16a-V158” value turned out to be 33%. In addition, the “% Rmax, binding to hCD32b” value in the test with CD32b (FcgRIIb) came to 77%. The “% Rmax, binding to hCD32a-R131” value in test [3] was 79%. Further, in the test with CD16B-NA2 (FcgRIIIb-NA2), the “% Rmax, binding to hCD16B-NA2” value amounted to 10%. Further, the “% Rmax, binding to hCD64” value with CD64 (FcgRI) is recorded as 77%.

B6: mAb7-IgG2.3G1-AY-V27 (protein)
constant: ASTKGPSVFPLAPCSRSTSESTAALGCLVKDYFPEPVTVSWNSGALTSGVHTFPAVLQSSGLYSLSSVVTVPSSNFGTQTYTCNVDHKPSNTKVDKTVERKSCVECPPCPAPELLGGPSVFLFPPKPKDTLMISRTPEVTCVVVDVEHEDPEVKFNWYVDGVEVHNAKTKPREEQYNSTYRVVSVLTVLHQDWLNGKEYKCKVSNKALPAPIEKTISKAKGQPREPQVYTLPPSREEMTKNQVSLTCLVKGFYPSDIAVEWESNGQPENNYKTTPPVLDSDGSFFLYSKLTVDKSRWQQGNVFSCSVMHEALHNHYTQKSLSLSPGK
modifications: left off: another chain or arm of the molecule
As to B6, the “% Rmax, binding to hCD32a-H131” value in test [1] was determined as 68%. Also, in test [2], the “% Rmax, binding to hCD16a-V158” value came out at 26%. In addition, in the test with CD32b (FcgRIIb), the “% Rmax, binding to hCD32b” value is recorded as 76%. Moreover, the “% Rmax, binding to hCD32a-R131” value in test [3] was determined as 92%. Further, the “% Rmax, binding to hCD16B-NA2” value with CD16B-NA2 (FcgRIIIb-NA2) is recorded as 7%. For the same molecule, in the test with CD64 (FcgRI), the “% Rmax, binding to hCD64” value was 84%.

B7: mAb7-IgG2.5G1-AY-V27 (protein)
constant: ASTKGPSVFPLAPSSRSTSESTAALGCLVKDYFPEPVTVSWNSGALTSGVHTFPAVLQSSGLYSLSSVVTVPSSNFGTQTYTCNVDHKPSNTKVDKTVERKCCVECPPCPAPELLGGPSVFLFPPKPKDTLMISRTPEVTCVVVDVEHEDPEVKFNWYVDGVEVHNAKTKPREEQYNSTYRVVSVLTVLHQDWLNGKEYKCKVSNKALPAPIEKTISKAKGQPREPQVYTLPPSREEMTKNQVSLTCLVKGFYPSDIAVEWESNGQPENNYKTTPPVLDSDGSFFLYSKLTVDKSRWQQGNVFSCSVMHEALHNHYTQKSLSLSPGK
modifications: left off: another chain or arm of the molecule
Consider B7, for which the “% Rmax, binding to hCD32a-H131” value in test [1] stood at 74%. In addition, the “% Rmax, binding to hCD16a-V158” value in test [2] was 32%. In addition, in the test with CD32b (FcgRIIb), the “% Rmax, binding to hCD32b” value was 84%. Also, the “% Rmax, binding to hCD32a-R131” value in test [3] is recorded as 89%. The “% Rmax, binding to hCD16B-NA2” value with CD16B-NA2 (FcgRIIIb-NA2) is listed as 9%. The “% Rmax, binding to hCD64” value with CD64 (FcgRI) came to 81%.
